Substitutions are numbered along the chain they refer to.
B1: MA116-15 ScFv antibody (mutagenized, repaired A116) (scFv)
scFv: MAQVQLQESGPELVKPGASVKISCKASGYTFTDYHVHWVKGKPGQGLEWIGMTYPGFDNTNYSETFKGKATLTVDTSSNTVYMQLSSLTSEDTAVYFCARGVGLDYWGQGTTVTVSSGGGGSGGGGSGGGGSDIELTQSPNSLSTSIGDRIRITCKASQDVDTAVGWYQQRPGQSPKLLIFWSSTRHTGVPDRFTGSGSGTDFTLTISNVQSEDLADYFCHQYSSYPFTFGSGTKLEIKRAAAGAPVPYPDPLEPRAA
B2: MA116-4 ScFv antibody (scFv)
scFv: B1 scFv with D133A, I134S, E135S, L136S, T137L, Q138S, S139L, P140S, E213D
B3: MA116-6 ScFv antibody (scFv)
scFv: MAQVQLQESGPELVKPGASVKISCKASGYTFTDYHVHWVKGKPGQGLEWIGMTYPGFDDTNYSETFKGKATLTVDTSSNTVYMQLSSLTSEDTAVYFCARGVGLDYWGQGTTVTVSSGGGGSGGGGSGGGGSDSSSLVSKFVSTSIGDRIRITCKASQDVDTAVGWYQQRPGQSPKLLIFWSSTRHTGVPDRFTGSGSGTDFTLTISNVQSEDLADYFCHQYSSYPFTFGSGTKLEIKRAAAGAPVPYPDPLEPRAA
B4: A116 ScFv antibody (recombinant single chain variable fragment cloned from hybridoma 1A4A1) (scFv)
scFv: B3 scFv with D59N, S77F, N79T, A94V, Y225H

Key:
[1] = biological target: Inactivated Venezuelan equine encephalitis (VEE) whole virus antigen, strain TC-83 (Venezuelan equine encephalitis virus, strain TC-83) (UniProt P05674); assay: ELISA of whole cell lysates on VEE antigen (FIG. 10)
[2] = biological target: Inactivated Venezuelan equine encephalitis (VEE) whole virus antigen, strain TC-83 (Venezuelan equine encephalitis virus, strain TC-83) (UniProt P05674); assay: ELISA, HB2151 whole cell lysate, wells with and without VEE whole virus antigen
[3] = biological target: Inactivated Venezuelan equine encephalitis (VEE) whole virus antigen, strain TC-83 (Venezuelan equine encephalitis virus, strain TC-83) (UniProt P05674); assay: ELISA, […], in triplicate, […]
[4] = biological target: Inactivated Venezuelan equine encephalitis (VEE) whole virus antigen, strain TC-83 (Venezuelan equine encephalitis virus, strain TC-83) (UniProt P05674)
[5] = biological target: Inactivated Venezuelan equine encephalitis (VEE) whole virus antigen, strain TC-83 (Venezuelan equine encephalitis virus, strain TC-83) (UniProt P05674); remark: listed apart in the source

Sequence of UniProt P05674 (P05674 335-757 limits assumed): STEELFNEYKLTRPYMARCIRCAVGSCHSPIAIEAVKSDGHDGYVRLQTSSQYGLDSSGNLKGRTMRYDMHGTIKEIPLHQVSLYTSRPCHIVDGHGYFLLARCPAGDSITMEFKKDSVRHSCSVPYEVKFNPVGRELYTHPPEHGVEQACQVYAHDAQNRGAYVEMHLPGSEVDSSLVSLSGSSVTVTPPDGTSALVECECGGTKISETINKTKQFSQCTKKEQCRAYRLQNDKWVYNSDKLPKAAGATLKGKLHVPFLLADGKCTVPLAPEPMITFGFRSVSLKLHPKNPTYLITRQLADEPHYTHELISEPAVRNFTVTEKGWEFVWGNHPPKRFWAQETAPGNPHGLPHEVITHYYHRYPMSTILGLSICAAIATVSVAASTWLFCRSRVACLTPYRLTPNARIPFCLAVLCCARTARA

Binder | fold ELISA reactivity against the parental A116 clone [1] [fold] | fold retention, with VEE antigen over without [2] [fold] | fold ELISA reactivity against the original A116 clone [3] [fold] | fold absorbance over the HB2151 negative control lysate [4] [fold] | fold absorbance, wells with VEE antigen over wells without [5] [fold]
B1 | > 4 | > 2.5 | 4 | – | –
B2 | – | > 2.5 | – | – | –
B3 | – | > 2.5 | – | – | –
B4 | – | – | – | 4 | > 2
